From PMC2174220
One block for each substance: values may come before it.

Key:
[1] = biological target: dynamitin (p50) subunit of dynactin, endogenous bovine (bovine) (UniProt Q3ZCF0); experiment: co-sedimentation
[2] = biological target: p62 subunit of dynactin (bovine); experiment: ion exchange chromatography
[3] = biological target: p150^Glued subunit of dynactin (bovine); experiment: co-sedimentation

p62 subunit of dynactin (bovine), sequence (Q9QUR2 whole entry): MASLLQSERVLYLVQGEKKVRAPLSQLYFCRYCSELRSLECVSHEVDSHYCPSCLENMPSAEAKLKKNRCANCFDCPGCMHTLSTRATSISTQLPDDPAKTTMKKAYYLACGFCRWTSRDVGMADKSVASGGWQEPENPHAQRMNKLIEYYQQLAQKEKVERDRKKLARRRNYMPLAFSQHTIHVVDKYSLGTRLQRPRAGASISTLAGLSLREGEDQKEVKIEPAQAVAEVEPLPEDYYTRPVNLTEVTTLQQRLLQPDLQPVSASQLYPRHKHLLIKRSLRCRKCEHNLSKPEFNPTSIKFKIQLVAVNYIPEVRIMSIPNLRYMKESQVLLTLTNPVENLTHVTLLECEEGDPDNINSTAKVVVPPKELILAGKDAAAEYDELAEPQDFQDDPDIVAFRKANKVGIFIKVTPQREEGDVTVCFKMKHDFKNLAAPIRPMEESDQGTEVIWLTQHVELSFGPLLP

Substance: dynamitin (p50) subunit of dynactin, endogenous bovine (from UniProt Q3ZCF0 1-403) (natural protein)
- stoichiometry N ([3]; scale: dynamitin per 2 p150): 2

Substance: p24 subunit of dynactin (from UniProt Q0P5A1 1-186) (natural protein)
- stoichiometry N (p24 per 2 p150^Glued) [3]: 2
- stoichiometry N ([3]; scale: p24 per 2 p150): 1

Substance: p27 subunit of dynactin (from UniProt Q148G7 1-190) (natural protein)
- stoichiometry N ([2]; scale: p27 per 1 p62): 1

More lines, now with the values ahead:

- stoichiometry N (Arp1 per dynamitin) [1]: 1.97
Substance: Arp1, actin-related protein of the dynactin minifilament (natural protein)

- stoichiometry N ([2]; scale: Arp11 per 1 p62): 1
Substance: Arp11, novel actin-related protein of the dynactin pointed-end complex (from UniProt Q3ZBD2 1-417) (natural protein)

- stoichiometry N ([2]; scale: p25 per 1 p62): 1
Substance: p25 subunit of dynactin (from UniProt Q9QZB9 1-182) (natural protein)
